In PMC7950113:

Legend:
Experiment in all cases: Co-AP mass spectrometry with TMT quantification
MOGS = settings: HEK293 cells; TMT intensities of interactors normalized to Tg intensities; read off a plot
PRKCSH = settings: HEK293 cells; TMT intensities of interactors normalized to Tg intensities; read off a plot
PSMA1 = settings: HEK293 cells; TMT intensities of interactors normalized to Tg intensities; read off a plot
PSMB4 = settings: HEK293 cells; TMT intensities of interactors normalized to Tg intensities; read off a plot
PSMD3 = settings: HEK293 cells; TMT intensities of interactors normalized to Tg intensities; read off a plot
PSME2 = settings: HEK293 cells; TMT intensities of interactors normalized to Tg intensities; read off a plot
UGGT2 = settings: HEK293 cells; TMT intensities of interactors normalized to Tg intensities; read off a plot
PSMC4 = settings: HEK293 cells; TMT intensities of interactors normalized to Tg intensities; read off a plot
[1] = target: oligosaccharyl transferase complex catalytic subunit A [human (endogenous in HEK293 cells)]; settings: TMT intensities of interactors normalized to Tg intensities, read off a plot
[2] = target: calreticulin [human (endogenous in HEK293 cells)]; settings: TMT intensities of interactors normalized to Tg intensities, read off a plot

| other: log2 fold change vs WT (MOGS) | other: log2 fold change vs WT (PSMA1) | other: log2 fold change vs WT (PSMB4) | other: log2 fold change vs WT (PSMD3) | other: log2 fold change vs WT (PSME2) | other: log2 fold change vs WT (UGGT2) | screen value [1] | Substance | further results |
| --- | --- | --- | --- | --- | --- | --- | --- | --- |
| 0.09 log2 | -0.28 log2 | -0.33 log2 | -0.35 log2 | -0.27 log2 | 0.15 log2 | – | FLAG-tagged thyroglobulin, WT (from UniProt P01266) A2234D | other: log2 fold change vs WT (PRKCSH): -0.39 log2 |
| -0.15 log2 | -0.27 log2 | -0.35 log2 | -0.45 log2 | -0.54 log2 | -0.09 log2 | – | FLAG-tagged thyroglobulin, WT (from UniProt P01266) C1264R | other: log2 fold change vs WT (PRKCSH): -0.05 log2; other: log2 fold change vs WT (PSMC4): -0.53 log2 |
| -0.05 log2 | 0.04 log2 | -0.53 log2 | -0.42 log2 | -0.65 log2 | 0.73 log2 | – | FLAG-tagged thyroglobulin, WT (from UniProt P01266) G2341R | other: log2 fold change vs WT (PSMC4): -0.51 log2 |
| -0.02 log2 | -0.04 log2 | -0.51 log2 | -0.33 log2 | -0.45 log2 | 0.49 log2 | – | FLAG-tagged thyroglobulin, WT (from UniProt P01266) L2284P | other: log2 fold change vs WT (PSMC4): -0.27 log2 |
| – | – | – | – | – | – | -0.15 log2 | FLAG-tagged thyroglobulin, WT mutant A2234D [human] / oligosaccharyl transferase complex catalytic subunit A [human (endogenous in HEK293 cells)] chain 1 A2215D | – |
| – | – | – | – | – | – | – | FLAG-tagged thyroglobulin, WT mutant C1264R [human] / calreticulin [human (endogenous in HEK293 cells)] chain 1 C1245R | screen value [2]: 0.18 log2 |
| – | – | – | – | – | – | -0.37 log2 | FLAG-tagged thyroglobulin, WT mutant C1264R [human] / oligosaccharyl transferase complex catalytic subunit A [human (endogenous in HEK293 cells)] chain 1 C1245R | – |
| – | – | – | – | – | – | – | FLAG-tagged thyroglobulin, WT mutant G2341R [human] / calreticulin [human (endogenous in HEK293 cells)] chain 1 G2322R | screen value [2]: 0.46 log2 |
| – | – | – | – | – | – | -0.21 log2 | FLAG-tagged thyroglobulin, WT mutant G2341R [human] / oligosaccharyl transferase complex catalytic subunit A [human (endogenous in HEK293 cells)] chain 1 G2322R | – |
| – | – | – | – | – | – | – | FLAG-tagged thyroglobulin, WT mutant L2284P [human] / calreticulin [human (endogenous in HEK293 cells)] chain 1 L2265P | screen value [2]: 0.5 log2 |
| – | – | – | – | – | – | -0.1 log2 | FLAG-tagged thyroglobulin, WT mutant L2284P [human] / oligosaccharyl transferase complex catalytic subunit A [human (endogenous in HEK293 cells)] chain 1 L2265P | – |
